Assay [1] has as its target wild-type cholecystokinin A receptor (CCKAR) (UniProt P32238).
For a further assay, the target named is CCKAR I296G (UniProt P32238).
Assay [2] concerns the target wild-type cholecystokinin A receptor (CCKAR) (UniProt P32238). This is another data set of the same source.

On to “Gi heterotrimer of the BRET G-protein dissociation assay (from UniProt P63096 1-354; P62873 1-340; P59768 1-71) (complex)”, for which the pEC50 of CCK-8 in the BRET G-protein dissociation assay (Gβγ-Venus to GRK3ct-luciferase), cells with CCKAR and Gi (Supplementary Table 3, Receptor + Gi) in assay [1] was determined as 7.32.

For the substance “Gi heterotrimer of the NanoBiT G-protein recruitment assay (Gαi1, SmBiT-fused human Gβ1, human Gγ2) (from UniProt P63096 1-354; P62873 1-340; P59768 1-71) (complex)”, the pEC50 of CCK-8, Gi-coupling activity by NanoBiT G-protein recruitment assay (CCKAR-LgBiT and SmBiT-Gβ1 in sf9 cells; Supplementary Table 4, I296G) in the assay with CCKAR I296G worked out at 6.66. In addition, the pEC50 of CCK-8, Gi-coupling activity by NanoBiT G-protein recruitment assay (CCKAR-LgBiT and SmBiT-Gβ1 in sf9 cells; Supplementary Table 4, WT) in assay [2] stood at 6.81.

The substance “Gq heterotrimer of the BRET G-protein dissociation assay (from UniProt P50148 1-359; P62873 1-340; P59768 1-71) (complex)” showed a pEC50 of CCK-8, Gq-coupling activity by BRET assay (Supplementary Table 4, I296G) with CCKAR I296G of 8.38. The same substance yielded a pEC50 of CCK-8, Gq-coupling activity by BRET assay (Supplementary Table 4, WT) in assay [2] of 9.14. For the same substance, in assay [1], the pEC50 of CCK-8 in the BRET G-protein dissociation assay (Gβγ-Venus to GRK3ct-luciferase), cells with CCKAR and Gq (Supplementary Table 3, Receptor + Gq) turned out to be 8.42.

For “Gs heterotrimer of the BRET G-protein dissociation assay (from UniProt P63092 1-394; P62873 1-340; P59768 1-71) (complex)”, in assay [1], the pEC50 of CCK-8 in the BRET G-protein dissociation assay (Gβγ-Venus to GRK3ct-luciferase), cells with CCKAR and Gs (Supplementary Table 3, Receptor + Gs) amounted to 7.92.

Substance “Gs heterotrimer of the NanoBiT G-protein dissociation assay (Gαs-LgBiT, Gβ, SmBiT-Gγ) (from UniProt P63092 1-394; P62873 1-340; P59768 1-71) (complex)” yielded a pEC50 of CCK-8, Gs-coupling activity by NanoBiT G-protein dissociation assay (Gαs-LgBiT and SmBiT-Gγ in HEK 293T/17 cells; Supplementary Table 4, I296G) with CCKAR I296G of 10.5. The pEC50 of CCK-8, Gs-coupling activity by NanoBiT G-protein dissociation assay (Gαs-LgBiT and SmBiT-Gγ in HEK 293T/17 cells; Supplementary Table 4, WT) in assay [2] amounted to 10.5.

The record behind these values is PMC8604728.
